Results taken from publication PMC5965902.

Biological target: Cys128 (UniProt position 128, FIDQHCSLMKV)
Test: chemical modification (DTNB/Ellman labelling kinetics followed by UV-vis)
Conditions: room temperature; 150 mM NaCl; 50 mM citric acid, 50 mM HEPES, 50 mM Bicine, pH adjusted with NaOH or HCl; Free (reduced) thiol form of RitR, 5 μM protein with 20 μM DTNB, no DNA

**Q.** “RitR (Repressor of iron transport Regulator), orphan two-component-like response regulator (Streptococcus pneumoniae (strain R800, R6/D39 derivative))” was tested. Which pKa did it give?
**A.** Its pKa is 6.85.
